18 sequences from the supplement of paper PMC9170038 can be followed below.

The test system of the data set is MS2 coat protein. Briefly: apparent KD of MS2 coat protein; higher = weaker reporter binding. The note with it: Eterna round: R107. An outline of the steps: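 With or without constant ligand, designed RNA switches in 100 mM Tris-HCl pH 7.5, 80 mM KCl and 4 mM MgCl2 were titrated with SNAP-549-labelled MS2 coat protein. Concentrations went up in twofold steps from 0.7 or 1.5 nM to 3 µM. The switches had been transcribed on-chip from Illumina sequencing clusters, and apparent KD is the per-design median of normalised cluster binding-curve fits.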

[1] abbreviates: input ligand: theophylline 20 uM.
[2] abbreviates: input ligand: tryptophan 2.4 mM.
Where [3] appears, read: input ligand: theophylline 2 mM.

On to “AAUAACAUGAGGAUCACCCAUGUAAAAGAUACCAGAGUGAUGAUCCUCCCUUGGCAGCUUAAAACGCUAUUGAUUACAAUAGCGA [Mat - Same State Theophlline A - Mod of Eli - D4]”, for which the “apparent KD of MS2 coat protein” value (input ligand: arginine 13.2 mM) was determined as 38.3 nM, the “apparent KD of MS2 coat protein” value under setting [1] was 99 nM and the “apparent KD of MS2 coat protein” value under setting [2] turned out to be 45.3 nM.
For the sequence “UCGUAUGCGGCGGCCGCCACUCGCGGAUAACGAGAGCUUAACAUGAGGAUCACCCAUGUGUCAUGGAGGACCGGGCCCAUUCACA [popmullin]”, the “apparent KD of MS2 coat protein” value reads like this: (input ligand: arginine 13.2 mM) 30.4 nM; under setting [1], 40.2 nM; under setting [3], 37.5 nM.
For the sequence “AUAUGAUCAUAUGAUACCAGAAAUGGUAUUCCUUUCUUUCUUACAUGAGGAUCACCCAUGUUCCCUUGGCAGCAUAUGAUCAUAU [ETHB #1]”, the “apparent KD of MS2 coat protein” value came out at 90.7 nM (input ligand: arginine 13.2 mM), 210 nM under setting [1] and 153 nM under setting [2].
With “GAUGCACAUGAGGAUCACCCAUGUCCUGAUACCAGAACGCGACUUUUCCCUUGGCAGCAGAAUUCACUUUUUUACAUUCAUACUG [theeternabot_sameState_MS2_Theo_A_11]”, the “apparent KD of MS2 coat protein” value (input ligand: arginine 13.2 mM) worked out at 22.7 nM, the “apparent KD of MS2 coat protein” value under setting [1] is 30.6 nM and the “apparent KD of MS2 coat protein” value under setting [2] worked out at 27 nM.
As to “UUUGAUAGGACAGAUACCAGCGUGUUAUAGAACAUGAGGAUCACCCAUGUAGUGAUCAAGCGCCCUUGGCAGCUGGUUUGUUAGG [7.K]”, the “apparent KD of MS2 coat protein” value (input ligand: arginine 13.2 mM) came out at 119 nM, the “apparent KD of MS2 coat protein” value under setting [1] was found to be 350 nM and the “apparent KD of MS2 coat protein” value under setting [2] was found to be 196 nM.
Turning to “UUAUUUAACGGAAGGAGCGCGGAAAUAAAAGUGGGUAAACAUGAGGAUCACCCAUGUAAACCGCAGGUAGGUCGCCGAUAUUUAU [AstrosEXyARgB#2]”, the “apparent KD of MS2 coat protein” value stood at 37 nM (input ligand: arginine 13.2 mM); 76.9 nM (input ligand: none); 93.9 nM under setting [1]; 95.4 nM under setting [3]; 59.4 nM under setting [2].
For the sequence “GAUUACAUGAGGAUCACCCAUGUAACUGAAGGAGCGGUAAUAAAGCCAGGUAGGUCGCAGAACAACAUGUGGUUCAUCCAUGUAA [#14 Exclusion - Arginine A]”, the “apparent KD of MS2 coat protein” value reads like this: (input ligand: arginine 13.2 mM) 23.2 nM; (input ligand: none) 20.1 nM; under setting [1], 35 nM; under setting [3], 26.8 nM; under setting [2], 21.3 nM.
Regarding “AUGUGCAAUACGGAUACCAGCCCGUGUAGAUACAUGAGGAUCACCCAUGUCAAUGUAAAUGGCCCUUGGCAGCCGUUUGGGAGGC [theeternabot_sameState_MS2_Theo_B_35]”, the “apparent KD of MS2 coat protein” value by setting is: (input ligand: arginine 13.2 mM) 13.4 nM; under setting [1], 19.9 nM; under setting [2], 19.4 nM.
With “UGUAUGGACUGAAGGAGCGGUAGAUAACCUGAGGAUCACCCGGGUAAUAAAGGCGAAAGCCACCAGGUAGGUCGCAGUCCAUACU”, the “apparent KD of MS2 coat protein” value was found to be 93.3 nM (input ligand: arginine 13.2 mM); 206 nM (input ligand: none); 173 nM under setting [1]; 321 nM under setting [3]; 262 nM under setting [2].
Consider “GCUGUAAGUGCAGAUACCAGCAGGUGAUAUUUCAUAUGACAUGAGGAUCACCCAUGUAACUGCCCUUGGCAGCUGCACUUACAGC [SSTHB #9]”, for which the “apparent KD of MS2 coat protein” value runs as follows: (input ligand: arginine 13.2 mM) 172 nM; under setting [1], 193 nM; under setting [2], 523 nM.
In the case of “UGUGUCGUCUGAAGGAGCGGCUCUUGAUCCUCGUGAGACAUGAGGAUCACCCAUGUCUCGAGCCAGGUAGGUCGCAGGCGGCACA [#26 Exclusion - Arginine B]”, the “apparent KD of MS2 coat protein” value amounted to 7.08 nM (input ligand: arginine 13.2 mM); 16.2 nM (input ligand: none); 12.8 nM under setting [1]; 13.6 nM under setting [3]; 14.1 nM under setting [2].
On to “GGAUAGGACAGAAGGAGCGUGAGAUGCAAAGCAUCAUUCCUCACAUGAGGAUCACCCAUGUCACAGGUAGGUCGCUGUCCUAUCG [ArgBX 4]”, for which the “apparent KD of MS2 coat protein” value is, setting by setting: (input ligand: arginine 13.2 mM) 78.3 nM; (input ligand: none) 95.1 nM; under setting [1], 119 nM; under setting [3], 110 nM; under setting [2], 112 nM.
With “AAUGGUCGUACUGGAAUGGUGAUCCUCAAACGAGGACCGGUACGGCCGCCACUCGAUAACAUGAGGAUCACCCAUGUAAUAAUAA [|T'-M'-Trp-Ms2|_Design13b]”, the “apparent KD of MS2 coat protein” value (input ligand: arginine 13.2 mM) came out at 26 nM, the “apparent KD of MS2 coat protein” value under setting [1] turned out to be 67.4 nM and the “apparent KD of MS2 coat protein” value under setting [3] worked out at 55.2 nM.
Consider “UUUUUUAACUGAAGGAGCGUCACAUGAGGAUCACCCAUGUAUUAGAUGAGAAUGAUCUUGUGGCAGGUAGGUCGCAGAGGAAGGG [#30 Exclusion - Arginine B]”, for which the “apparent KD of MS2 coat protein” value was 521 nM (input ligand: arginine 13.2 mM); 327 nM (input ligand: none); 167 nM under setting [1]; 271 nM under setting [3]; 370 nM under setting [2].
“ACAUGAGGAUCACCCAUGUCACGGCACGAUACCAGCUGAUGCGGUGGCCCUUGGCAGCGUGACGUUUGGUCCCGCGGAUGACGGG [zzmullin]”: the “apparent KD of MS2 coat protein” value by setting is: (input ligand: arginine 13.2 mM) 36.6 nM; under setting [1], 74.3 nM; under setting [2], 53.2 nM.
For the sequence “AAUGUAUGGCACAUGAGGAUCACCCAUGUGCGAGGACCGGUACGGCCGCCACUCGGUCCUGGGAUCUUAAUACUAUACAUUAAUG [XTryp A #19]”, the “apparent KD of MS2 coat protein” value runs as follows: (input ligand: arginine 13.2 mM) 10.3 nM; under setting [1], 15.1 nM; under setting [3], 13.9 nM.
Consider “ACAUGAGGAUCACCCAUGUUCCUCGCCGAUACCAGUGAAGAAGAACGCCCUUGGCAGCGGAAAGAAUAUUUUGGAGAUGAGGUAU [6.W]”, for which the “apparent KD of MS2 coat protein” value (input ligand: arginine 13.2 mM) came to 120 nM, the “apparent KD of MS2 coat protein” value under setting [1] was 219 nM and the “apparent KD of MS2 coat protein” value under setting [2] worked out at 165 nM.
Consider “GCAUCCUAGUCGGCCGCCACUGGUACGAAUACCUUCACCCGUGUGCACAUGAGGAUCACCCAUGUCAGGACCGGGACUAGGAUGC [SSTryp B #23]”, for which the “apparent KD of MS2 coat protein” value is, setting by setting: (input ligand: arginine 13.2 mM) 9.58 nM; (input ligand: none) 9.22 nM; under setting [1], 13.8 nM; under setting [3], 9.91 nM; under setting [2], 9.61 nM.
